Experimental data taken from patent US20250163162A1 (SYNTHEKINE, published 2025).
Blank lines part the entries; values can stand above or below the binder they belong to.

Experiments:
Assay in all cases: cell-based or functional assay
[1] = target: T1, IL10Rα/IL2Rγ receptor (human, UniProt Q13651 22-578; P31785 23-369)
T1 sequence (looked up) 1: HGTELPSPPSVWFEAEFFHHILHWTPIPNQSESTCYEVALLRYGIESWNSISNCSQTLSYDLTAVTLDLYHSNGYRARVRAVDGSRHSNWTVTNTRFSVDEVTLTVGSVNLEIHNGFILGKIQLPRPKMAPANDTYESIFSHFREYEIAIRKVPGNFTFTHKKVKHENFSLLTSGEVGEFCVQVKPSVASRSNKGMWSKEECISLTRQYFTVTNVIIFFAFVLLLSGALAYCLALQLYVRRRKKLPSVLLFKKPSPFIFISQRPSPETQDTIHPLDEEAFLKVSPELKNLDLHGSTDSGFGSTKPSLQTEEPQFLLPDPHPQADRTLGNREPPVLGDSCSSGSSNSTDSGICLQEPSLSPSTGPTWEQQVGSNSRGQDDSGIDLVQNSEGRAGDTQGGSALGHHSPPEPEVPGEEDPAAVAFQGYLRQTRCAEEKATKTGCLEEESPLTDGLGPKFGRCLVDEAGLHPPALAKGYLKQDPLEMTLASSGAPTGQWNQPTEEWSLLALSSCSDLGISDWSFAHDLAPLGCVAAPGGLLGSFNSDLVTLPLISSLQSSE
T1 sequence (looked up) 2: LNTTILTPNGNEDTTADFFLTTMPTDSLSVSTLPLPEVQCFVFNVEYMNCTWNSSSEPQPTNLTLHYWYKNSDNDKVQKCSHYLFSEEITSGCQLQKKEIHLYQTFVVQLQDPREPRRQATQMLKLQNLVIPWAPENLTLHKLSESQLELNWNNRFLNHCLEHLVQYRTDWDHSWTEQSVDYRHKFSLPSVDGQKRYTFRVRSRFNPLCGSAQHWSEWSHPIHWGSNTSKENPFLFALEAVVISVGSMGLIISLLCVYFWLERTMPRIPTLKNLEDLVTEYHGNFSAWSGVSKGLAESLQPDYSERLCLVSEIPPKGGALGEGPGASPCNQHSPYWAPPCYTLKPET

[2] = target: T1, IL10Rα/IL2Rγ receptor; remark: listed apart in the source
[3] = target: T1, IL10Rα/IL2Rγ receptor; remark: listed apart in the source
[4] = target: T1, IL10Rα/IL2Rγ receptor; remark: listed apart in the source
[5] = target: T1, IL10Rα/IL2Rγ receptor; remark: listed apart in the source
[6] = target: T1, IL10Rα/IL2Rγ receptor; remark: listed apart in the source

- pSTAT3 MFI, B cells, 100 nM (unstimulated 1045) [1]: 1050 MFI
- pSTAT3 MFI, CD4+ T cells, 100 nM (unstimulated 1778) [1]: 3110 MFI
- pSTAT3 MFI, CD8+ T cells, 100 nM (unstimulated 1288) [1]: 2100 MFI
- pSTAT3 MFI, Monocytes, 100 nM (unstimulated 1787) [1]: 1790 MFI
- pSTAT3 MFI, NK cells, 100 nM (unstimulated 1149) [1]: 1220 MFI
B1: DR442(DR236-DR232) (bispecific antibody)
chain: QVQLQESGGGSVQAGGSLRLSCAASRFTYSSYCMGWFRQAPGKEREGVASIDSDGSTSYTDSVKGRFTISKDNAKNTLYLQMNSLKPEDTAMYYCALDLMSTVVPGFCGFLLSAGMDYWGKGTQVTVSSGGGSQVQLQESGGGSVQAGGSLRLSCVASGYTSCMGWFRQAPGKEREAVATIYTRGRSIYYADSVKGRFTISQDNAKNTLYLQMNSLKPEDIAMYSCAAGGYSWSAGCEFNYWGQGTQVTVSSASHHHHHH

- pSTAT3 MFI, Monocytes, 0.0001 nM (unstimulated 2116) [2]: 2030 MFI
- pSTAT3 MFI, Monocytes, 0.001 nM (unstimulated 2116) [2]: 2040 MFI
- pSTAT3 MFI, Monocytes, 0.01 nM (unstimulated 2116) [2]: 2030 MFI
- pSTAT3 MFI, Monocytes, 0.1 nM (unstimulated 2116) [2]: 2010 MFI
- pSTAT3 MFI, Monocytes, 1 nM (unstimulated 2116) [2]: 2060 MFI
- pSTAT3 MFI, Monocytes, 10 nM (unstimulated 2116) [2]: 2340 MFI
- pSTAT3 MFI, Monocytes, 100 nM (unstimulated 2116) [2]: 2290 MFI
- pSTAT3 MFI, CD8 T cells, 0.0001 nM (unstimulated 1446) [3]: 1380 MFI
- pSTAT3 MFI, CD8 T cells, 0.001 nM (unstimulated 1446) [3]: 1410 MFI
- pSTAT3 MFI, CD8 T cells, 0.01 nM (unstimulated 1446) [3]: 1430 MFI
- pSTAT3 MFI, CD8 T cells, 0.1 nM (unstimulated 1446) [3]: 1610 MFI
- pSTAT3 MFI, CD8 T cells, 1 nM (unstimulated 1446) [3]: 3060 MFI
- pSTAT3 MFI, CD8 T cells, 10 nM (unstimulated 1446) [3]: 4470 MFI
- pSTAT3 MFI, CD8 T cells, 100 nM (unstimulated 1446) [3]: 4260 MFI
- pSTAT3 MFI, CD4 T cells, 0.0001 nM (unstimulated 1887) [4]: 1810 MFI
- pSTAT3 MFI, CD4 T cells, 0.001 nM (unstimulated 1887) [4]: 1830 MFI
- pSTAT3 MFI, CD4 T cells, 0.01 nM (unstimulated 1887) [4]: 1880 MFI
- pSTAT3 MFI, CD4 T cells, 0.1 nM (unstimulated 1887) [4]: 2240 MFI
- pSTAT3 MFI, CD4 T cells, 1 nM (unstimulated 1887) [4]: 4560 MFI
- pSTAT3 MFI, CD4 T cells, 10 nM (unstimulated 1887) [4]: 6760 MFI
- pSTAT3 MFI, CD4 T cells, 100 nM (unstimulated 1887) [4]: 6350 MFI
- pSTAT3 MFI, B cells, 0.0001 nM (unstimulated 1193.5) [5]: 1120 MFI
- pSTAT3 MFI, B cells, 0.001 nM (unstimulated 1193.5) [5]: 1130 MFI
- pSTAT3 MFI, B cells, 0.01 nM (unstimulated 1193.5) [5]: 1130 MFI
- pSTAT3 MFI, B cells, 0.1 nM (unstimulated 1193.5) [5]: 1120 MFI
- pSTAT3 MFI, B cells, 1 nM (unstimulated 1193.5) [5]: 1220 MFI
- pSTAT3 MFI, B cells, 10 nM (unstimulated 1193.5) [5]: 1540 MFI
- pSTAT3 MFI, B cells, 100 nM (unstimulated 1193.5) [5]: 1470 MFI
- pSTAT3 MFI, NK cells, 0.0001 nM (unstimulated 1315) [6]: 1250 MFI
- pSTAT3 MFI, NK cells, 0.001 nM (unstimulated 1315) [6]: 1260 MFI
- pSTAT3 MFI, NK cells, 0.01 nM (unstimulated 1315) [6]: 1270 MFI
- pSTAT3 MFI, NK cells, 0.1 nM (unstimulated 1315) [6]: 1270 MFI
- pSTAT3 MFI, NK cells, 1 nM (unstimulated 1315) [6]: 1440 MFI
- pSTAT3 MFI, NK cells, 10 nM (unstimulated 1315) [6]: 1800 MFI
- pSTAT3 MFI, NK cells, 100 nM (unstimulated 1315) [6]: 1770 MFI
- pSTAT3 MFI, B cells, 100 nM (unstimulated 1045) [1]: 1280 MFI
- pSTAT3 MFI, CD4+ T cells, 100 nM (unstimulated 1778) [1]: 5760 MFI
- pSTAT3 MFI, CD8+ T cells, 100 nM (unstimulated 1288) [1]: 3940 MFI
- pSTAT3 MFI, Monocytes, 100 nM (unstimulated 1787) [1]: 2130 MFI
- pSTAT3 MFI, NK cells, 100 nM (unstimulated 1149) [1]: 1660 MFI
B2: DR441(DR236-DR231) (bispecific antibody)
chain: QVQLQESGGGSVQAGGSLRLSCAASRFTYSSYCMGWFRQAPGKEREGVASIDSDGSTSYTDSVKGRFTISKDNAKNTLYLQMNSLKPEDTAMYYCALDLMSTVVPGFCGFLLSAGMDYWGKGTQVTVSSGGGSQVQLQESGGGSVQAGGSLRLSCTASGFTFDDREMNWYRQAPGNECELVSTISSDGSTYYADSVKGRFTISQDNAKNTVYLQMDSVKPEDTAVYYCAADFMIAIQAPGAGCWGQGTQVTVSSASHHHHHH

- pSTAT3 MFI, B cells, 100 nM (unstimulated 1045) [1]: 1050 MFI
- pSTAT3 MFI, CD4+ T cells, 100 nM (unstimulated 1778) [1]: 2780 MFI
- pSTAT3 MFI, CD8+ T cells, 100 nM (unstimulated 1288) [1]: 1830 MFI
- pSTAT3 MFI, Monocytes, 100 nM (unstimulated 1787) [1]: 1810 MFI
- pSTAT3 MFI, NK cells, 100 nM (unstimulated 1149) [1]: 1170 MFI
B3: DR438(DR235-DR234) (bispecific antibody)
chain: QVQLQESGGGSVQAGGSLRLSCAASRYLYSIDYMAWFRQSPGKEREPVAVIYTASGATFYPDSVKGRFTISQDNAKMTVYLQMNSLKSEDTAMYYCAAVRKTDSYLFDAQSFTYWGQGTQVTVSSGGGSQVQLQESGGGSVQAGGSLRLSCVASGYTFSSYCMGWFRQAPGKEREGVAALGGGSTYYADSVKGRFTISQDNAKNTLYLQMNSLKPEDTAMYYCAAAWVACLEFGGSWYDLARYKHWGQGTQVTVSSASHHHHHH

- pSTAT3 MFI, B cells, 100 nM (unstimulated 1045) [1]: 1100 MFI
- pSTAT3 MFI, CD4+ T cells, 100 nM (unstimulated 1778) [1]: 3170 MFI
- pSTAT3 MFI, CD8+ T cells, 100 nM (unstimulated 1288) [1]: 2310 MFI
- pSTAT3 MFI, Monocytes, 100 nM (unstimulated 1787) [1]: 1870 MFI
- pSTAT3 MFI, NK cells, 100 nM (unstimulated 1149) [1]: 1280 MFI
B4: DR466(DR240-DR232) (bispecific antibody)
chain: QVQLQESGGGSVQAGGSLRLSCGASGYTYSSYCMGWFRQVPGKEREGVAVIDSDGSTSYADSVKGRFTISKDNGKNTLYLQMNSLKPEDTAMYYCAADLGHYRPPCGVLYLGMDYWGKGTQVTVSSGGGSQVQLQESGGGSVQAGGSLRLSCVASGYTSCMGWFRQAPGKEREAVATIYTRGRSIYYADSVKGRFTISQDNAKNTLYLQMNSLKPEDIAMYSCAAGGYSWSAGCEFNYWGQGTQVTVSSASHHHHHH

- pSTAT3 MFI, B cells, 100 nM (unstimulated 1045) [1]: 1030 MFI
- pSTAT3 MFI, CD4+ T cells, 100 nM (unstimulated 1778) [1]: 3770 MFI
- pSTAT3 MFI, CD8+ T cells, 100 nM (unstimulated 1288) [1]: 2460 MFI
- pSTAT3 MFI, Monocytes, 100 nM (unstimulated 1787) [1]: 2320 MFI
- pSTAT3 MFI, NK cells, 100 nM (unstimulated 1149) [1]: 1230 MFI
B5: DR474(DR241-DR234) (bispecific antibody)
chain: QVQLQESGGGSVQAGGSLRLSCAASGYSNCSYDMTWYRQAPGKEREFVSAIHSDGSTRYADSVKGRFFISQDNAKNTVYLQMNSLKPEDTAMYYCKTDPLHCRAHGGSWYSVRANYWGQGTQVTVSSGGGSQVQLQESGGGSVQAGGSLRLSCVASGYTFSSYCMGWFRQAPGKEREGVAALGGGSTYYADSVKGRFTISQDNAKNTLYLQMNSLKPEDTAMYYCAAAWVACLEFGGSWYDLARYKHWGQGTQVTVSSASHHHHHH
